Test results: patent US20160289280A1, “Fusion protein of recombinant ganoderma immunoregulatory protein and human serum albumin, preparation method thereof, and application thereof” (priority 2013, published 2016)
Where “and” joins values, the source holds several entries; their conditions need not be identical. Identical values can stand only once. Marks after values point to notes of the source that are not given here.

B1: rLZ-8-HSA: fusion protein of ganoderma immunoregulatory protein (LZ-8) and human serum albumin, linker GGGGSS, SEQ ID NO. 1 (protein)
chain: SDTALIFRLAWDVKKLSFDYTPNWGRGNPNNFIDTVTFPKVLTDKAYTYRVAVSGRNLGVKPSYAVESDGSGKVNFLEYNSGYGIADTNTIGVFVVDPDTNNDFIIAGWNGGGGSSMKWVTFISLLFLFSSAYSRGVFRRDAHKSEVAHRFKDLGEENFKALVLIAFAGYLGGCPFEDHVKLVNEVTEFAKTCVADESAENCDKSLHTLFGDKLCTVATLRETYGEMADCCAKGEPERNECFLGHKDDNPNLPRLVRPEVDVMCTAFHDNEETFLKKYLYEIARRHPYFYAPELLFFAKRYKAAFTECCGAADKAACLLPKLDELRDEGKASSAKGRLKCASLGKFGERAFKAWAVARLSGRFPKAEFAEVSKLVTDLTKVHTECCHGDLLECADDRADLAKYICENGDSISSKLKECCEKPLLEKSHCIAEVENDEMPADLPSLAADFVESKDVCKNYAEAKDVFLGMFLYEYARRHPDYSVVLLLRLAKTYETTLEKCCAAADPHECYAKVFDEFKPLVEEPGNLIKGNCELFEGLGEYKFGNALLVRYTKKVPGVSTPTLVEVSRNLGKVGSKCCKHPEAKRMPCAEDYLSVVLNGLCVLHEKTPVSDRVTKCCTESLVNRRPCFSALEVDETYVPKEFNAETFTFHADICTLSEKERGIKKGTALVELVKHKPKATKEGLKAVMDDFAAFVEKCCKADDKETCFAEEGKKLVAASGAALGL
modifications: rLZ-8-HSA sequence
B2: rLZ-8: recombinant ganoderma immunoregulatory protein which is not fused, comparator (protein, UniProt P14945 2-111, looked up)
Immunomodulatory protein Ling …: SDTALIFRLAWDVKKLSFDYTPNWGRGNPNNFIDTVTFPKVLTDKAYTYRVAVSGRNLGVKPSYAVESDGSQKVNFLEYNSGYGIADTNTIQVFVVDPDTNNDFIIAQWN

What was measured:
[1] = tested on: mouse spleen cells; assay: promotion of mouse spleen cell proliferation, WST-1 method; type: cell-based; conditions: for OD450, promotion of cell proliferation: 24 h, x ± s, n = 9
Protocol: Testing effects of the fusion proteins on mouse spleen cell proliferation by a WST-1 method, which illustrates strength of biological activity, wherein according to the present invention, BALB/c female mice are used, whose weight is controlled at 20-22 g; executing the mice by stretching necks thereof, taking out spleens under a sterile condition, and putting into a plate with 5 ml DMEM comprising 10% calf serum; cracking the spleens with tweezers, filtering tissue suspension with gauze for removing tissue blocks, and preparing cell suspension of spleen cells; adding 100 μl the tissue suspension into 900 μl 2% glacial acetic acid for counting with a microscope; adjusting a cell concentration to 5×10^6/ml with DMEM comprising 2% calf serum; respectively preparing the fusion proteins and the rLZ-8 with same molar concentration gradient, wherein there are 3 gradient concentrations, each concentration occupies 9 wells with 100 μl per well; adding tissue suspension with a concentration of 5×10^6/ml with 100 μl per well; shaking for evenly mixing, and then putting into a 37° C., 5% CO2 incubation device to incubate for 24 h; after incubation, adding WST-1 with 20 μl per well; putting into the 37° C., 5% CO2 incubation device to incubate for 3 h, then testing OD450 (with a BIO-RAD); wherein results are listed in table 1.

[2] = tested on: leukocytes; assay: treatment of rat models with leucopenia caused by cyclophosphamide, leukocyte count; type: in vivo; conditions: for leukocyte number before: baseline after CP modeling, before treatment
Excerpt: Utilizing Wistar rats in the experiments, wherein 18 rats weighing about 100 g are utilized. […] The experiment has an rLZ-8 low-dosage group, an rLZ-8 middle-dosage group, an rLZ-8 high-dosage group, an rLZ-8-HSA low-dosage group, an rLZ-8-HSA middle-dosage group, an rLZ-8-HSA high-dosage group, and a positive medicine control group (utilizing the […]®). […] On the third day, the blood is sampled from the tail vein, and the leukocytes are counted by a cytoanalyzer. After successful modeling, the rats of each the group are respectively treated with the rLZ-8, the three kinds of the fusion proteins, or the positive medicine (the […]®) with the corresponding dosage, and the equal sterile saline is given to the rats of the normal control and a CP group. The blood is sampled from the tail vein on the first, third and seventh treatment days, and the leukocytes are counted by the cytoanalyzer. Medicine efficacy is analyzed according to a number difference of the leukocyte between before and after the treatment.

[3] = tested on: mouse melanoma cells B16-F10; assay: mouse B16-F10 transplanted tumor model, in situ tumor weight; type: in vivo; conditions: tail vein once a day, 28 days
Protocol: In vivo experiment: firstly, establishing a mouse tumor mould, wherein mouse melanoma cells B16-F10 is cultured with the DMEM comprising 10% fetal calf serum at 37° C. in a CO2 incubation device; slowly subcutaneously injecting 200 μl B16-F10 cell suspension (comprising 1×10^7 cells) with a 1 ml injector at mouse dorsal-ventral skin, so as to establish a mouse transplanted tumor mould.

[4] = tested on: mouse S180 Ehrlich ascites tumor; assay: in vitro inhibition effect on mouse S180 Ehrlich ascites tumor, WST-1 method; type: cell-based; conditions: 24 h, x ± s, n = 9
Protocol: In vitro experiment: testing the inhibition effect of the fusion protein rLZ-8-HSA on the mouse 5180 Ehrlich ascites tumor through the WST-1 method, preparing tissue suspension of the mouse S180 Ehrlich ascites tumor; adding 100 μl the tissue suspension into 900 μl 2% glacial acetic acid and counting with a microscope; adjusting a tissue concentration to 2×10^5/ml with DMEM comprising 2% calf serum; respectively preparing the fusion protein rLZ-8-HSA and the rLZ-8 with same molar concentration gradient, wherein there are 3 gradient concentrations, each concentration occupies 9 wells with 100 μl per well; adding tissue suspension with a concentration of 2×10^5/ml with 100 μl per well; shaking for evenly mixing, and then putting into a 37° C., 5% CO2 incubation device to incubate for 24 h; after incubation, adding WST-1 with 20 μl per well; putting into the 37° C., 5% CO2 incubation device to incubate for 3 h, then testing OD450 (with a BIO-RAD); wherein results are listed in table 5.

[5] = tested on: mouse transplanted tumor S180; assay: subcutaneous inhibition of mouse transplanted tumor S180; type: in vivo; conditions: tail vein, 10 days
Protocol: In vivo experiment: experimental material: mice weighing 18-22 g from Laboratory Animal Center of Jilin University; Ehrlich ascites tumor cell strains are provided by a lab of the inventor; cytoxan (CTX) is from Jiangsu Hengrui Medicine Co., Ltd, whose batch number is 06101921; 5180 ascites tumor and soild tumor experimental groups respectively comprises a normal control group, a negative control group, a positive control group, an rLZ-8 low-dosage group (0.25 mg·kg^−1), an rLZ-8 middle-dosage group (0.5 mg·kg^−1), an rLZ-8 high-dosage group (1 mg·kg^−1), an rLZ-8-HSA low-dosage group (0.25 mg·kg^−1), an rLZ-8-HSA middle-dosage group (0.5 mg·kg^−1), and an rLZ-8-HSA high-dosage group (1 mg·kg^−1), wherein dosages of the rLZ-8-HSA groups are judged from LZ-8 dosage, wherein each group comprises 10 mice.
tumor inhibition rate (%)=(average tumor weight of control groups−average tumor weight of experimental groups)/average tumor weight of control groups×100%.

[6] = high-dosage 60 μg/kg (LZ-8 dosage)
[7] = low-dosage 15 μg/kg (LZ-8 dosage)
[8] = middle-dosage 30 μg/kg (LZ-8 dosage)
[9] = low-dosage 0.25 mg·kg^−1 (LZ-8)
[10] = middle-dosage 0.5 mg·kg^−1 (LZ-8)

Molecule	OD450, promotion of cell proliferation ([1]; protein 5.0 × 10^−9 mol/L)	OD450, promotion of cell proliferation ([1]; protein 10.0 × 10^−9 mol/L)	OD450, promotion of cell proliferation ([1]; protein 15.0 × 10^−9 mol/L)	leukocyte number on the first treatment day [2, 6] [L⁻¹]	leukocyte number on the seventh treatment day [2, 6] [L⁻¹]	leukocyte number on the third treatment day [2, 6] [L⁻¹]	leukocyte number before [2, 6] [L⁻¹]	leukocyte number on the first treatment day [2, 7] [L⁻¹]	leukocyte number on the seventh treatment day [2, 7] [L⁻¹]	leukocyte number on the third treatment day [2, 7] [L⁻¹]	leukocyte number before [2, 7] [L⁻¹]	leukocyte number on the first treatment day [2, 8] [L⁻¹]	leukocyte number on the seventh treatment day [2, 8] [L⁻¹]	leukocyte number on the third treatment day [2, 8] [L⁻¹]	leukocyte number before [2, 8] [L⁻¹]	tumor inhibition rate ([3]; high-dosage 492 μg/kg (LZ-8)) [%]	tumor weight ([3]; high-dosage 492 μg/kg (LZ-8)) [g]	tumor inhibition rate ([3]; low-dosage 123 μg/kg (LZ-8)) [%]	tumor weight ([3]; low-dosage 123 μg/kg (LZ-8)) [g]	tumor inhibition rate ([3]; middle-dosage 246 μg/kg (LZ-8)) [%]	further results
B1	0.936 ± 0.31	1.680 ± 0.38	2.373 ± 0.35	8.4e+09	1.55e+10	1.44e+10	3.33e+09	8.5e+09	1.32e+10	1.08e+10	3.11e+09	9.2e+09	1.34e+10	1.198e+10	2.89e+09	89.51 ± 0.88	0.13 ± 0.05	71.77 ± 0.31	0.35 ± 0.11	78.22 ± 0.47	promotion of spleen cell proliferation compared with rLZ-8 ([1]; same protein concentration): better than the rLZ-8; leukocyte number relative to the rLZ-8 groups with the same dosage ([2]; first treatment day): about 2 times; tumor weight ([3]; middle-dosage 246 μg/kg (LZ-8)): 0.27 ± 0.14 g; OD450, inhibition effect on mouse S180 Ehrlich ascites tumor ([4]; protein 5.0 × 10^−9 mol/L): 0.408 ± 0.21; OD450, inhibition effect on mouse S180 Ehrlich ascites tumor ([4]; protein 10.0 × 10^−9 mol/L): 0.233 ± 0.18; OD450, inhibition effect on mouse S180 Ehrlich ascites tumor ([4]; protein 15.0 × 10^−9 mol/L): 0.127 ± 0.15; Inhibition rate ([5]; high-dosage 1 mg·kg^−1 (LZ-8)): 29.3%; tumor weight ([5]; high-dosage 1 mg·kg^−1 (LZ-8)): 0.21 ± 0.08 g; Inhibition rate [5, 9]: 27.7%; tumor weight [5, 9]: 0.73 ± 0.03 g; Inhibition rate [5, 10]: 56.4%; tumor weight [5, 10]: 0.44 ± 0.05 g
B2	0.739 ± 0.23	1.197 ± 0.31	1.567 ± 0.27	5.4e+09	1.45e+10	9.6e+09	4.09e+09	4.6e+09	1.12e+10	9.3e+09	3.71e+09	5.1e+09	1.278e+10	9.7e+09	3.12e+09	83.04 ± 0.51	0.25 ± 0.04	56.72 ± 0.41	0.53 ± 0.21	64.91 ± 0.77	tumor weight ([3]; middle-dosage 246 μg/kg (LZ-8)): 0.43 ± 0.17 g; OD450, inhibition effect on mouse S180 Ehrlich ascites tumor ([4]; protein 5.0 × 10^−9 mol/L): 0.453 ± 0.23; OD450, inhibition effect on mouse S180 Ehrlich ascites tumor ([4]; protein 10.0 × 10^−9 mol/L): 0.366 ± 0.31; OD450, inhibition effect on mouse S180 Ehrlich ascites tumor ([4]; protein 15.0 × 10^−9 mol/L): 0.345 ± 0.27; Inhibition rate ([5]; high-dosage 1 mg·kg^−1 (LZ-8)): 45.5% and 43.5%; tumor weight ([5]; high-dosage 1 mg·kg^−1 (LZ-8)): 0.57 ± 0.03 g; Inhibition rate [5, 9]: 16.8% and 17.8%; tumor weight [5, 9]: 0.83 ± 0.03 g; Inhibition rate [5, 10]: 25.7% and 26.7%; tumor weight [5, 10]: 0.74 ± 0.02 g
